Target: T1, full length αE-cat R551A (human, UniProt P35221 1-906, R551A)
T1 construct: αE-catenin (CTNNA1), human, full length, M3-domain salt-bridge mutant R551A; also called GST-αE-catenin (human) R551A
T1 sequence (looked up): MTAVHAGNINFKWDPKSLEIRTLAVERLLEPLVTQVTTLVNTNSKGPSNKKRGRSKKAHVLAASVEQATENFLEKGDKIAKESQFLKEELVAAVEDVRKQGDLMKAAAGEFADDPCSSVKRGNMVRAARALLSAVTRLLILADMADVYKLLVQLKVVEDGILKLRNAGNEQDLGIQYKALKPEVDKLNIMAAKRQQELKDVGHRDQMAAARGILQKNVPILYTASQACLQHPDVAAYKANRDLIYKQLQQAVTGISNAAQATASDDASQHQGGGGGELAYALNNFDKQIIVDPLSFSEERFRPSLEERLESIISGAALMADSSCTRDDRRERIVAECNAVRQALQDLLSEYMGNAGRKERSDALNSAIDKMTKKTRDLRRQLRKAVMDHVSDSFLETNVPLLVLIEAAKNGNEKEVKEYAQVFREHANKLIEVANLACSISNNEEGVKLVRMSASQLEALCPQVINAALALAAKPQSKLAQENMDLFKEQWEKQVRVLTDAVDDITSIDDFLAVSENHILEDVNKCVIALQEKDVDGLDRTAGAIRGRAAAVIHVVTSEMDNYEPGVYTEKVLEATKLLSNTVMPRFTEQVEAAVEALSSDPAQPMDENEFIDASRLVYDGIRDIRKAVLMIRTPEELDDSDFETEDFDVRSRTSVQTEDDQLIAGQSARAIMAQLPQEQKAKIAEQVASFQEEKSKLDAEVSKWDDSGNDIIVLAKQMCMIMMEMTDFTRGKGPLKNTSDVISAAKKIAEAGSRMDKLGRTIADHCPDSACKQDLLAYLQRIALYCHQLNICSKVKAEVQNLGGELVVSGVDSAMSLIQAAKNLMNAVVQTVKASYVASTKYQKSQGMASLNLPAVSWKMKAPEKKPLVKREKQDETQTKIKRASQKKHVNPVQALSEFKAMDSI
Test: pull-down; GST-Afdn-CC-ABR (or GST control) pre-bound to glutathione resin, mixed with α-cat prey proteins, washed, eluted with free glutathione; interaction strength assessed by Coomassie staining
Conditions: both partners purified

- binding result: binds
B1: GST-Afadin-Coiled-coil α-cat binding region (Afadin-CC-ABR; amino acids 1391–1449) (domain or fragment, rat)
chain: MDLPLPPPPANQAAPQSAQVAAAERKKREEHQRWYEKEKARLEEERERKRREQERKLGQ
notes: cDNA from the Takai lab; also called GST-Afadin-CC-ABR; GST-Afdn-CC-ABR; not shown: GST, N-terminal, kept

From doi:10.1101/2025.08.21.671625, “α-catenin phosphorylation is actomyosin-sensitive and required for epithelial barrier functions through Afadin” (bioRxiv, 2025)
